Assay results from patent publication US20100196390A1 (RINAT NEUROSCIENCE, published 2010).

Each binder was assayed against TrkB (Homo sapiens (Human), UniProt Q16620 32-430) (assay: koff of Fab at 25 C; T1/2=Log2/koff).
In short: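 Monovalent Fab fragments were tested at 25° C by surface plasmon resonance on a Biacore instrument, against TrkB extracellular-domain monomer amine-coupled to the chip at low capacity. Fabs were injected low to high as a 3-fold serial dilution from 100 nM for 84 sec, with a 10 minute dissociation after the top sample. The dissociation half-life was calculated from koff, which was fitted to a Langmuir binding model in BIAevaluation. The formula used was T1/2 = Log 2/koff.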

Sequence of TrkB (Q16620 32-430 limits assumed): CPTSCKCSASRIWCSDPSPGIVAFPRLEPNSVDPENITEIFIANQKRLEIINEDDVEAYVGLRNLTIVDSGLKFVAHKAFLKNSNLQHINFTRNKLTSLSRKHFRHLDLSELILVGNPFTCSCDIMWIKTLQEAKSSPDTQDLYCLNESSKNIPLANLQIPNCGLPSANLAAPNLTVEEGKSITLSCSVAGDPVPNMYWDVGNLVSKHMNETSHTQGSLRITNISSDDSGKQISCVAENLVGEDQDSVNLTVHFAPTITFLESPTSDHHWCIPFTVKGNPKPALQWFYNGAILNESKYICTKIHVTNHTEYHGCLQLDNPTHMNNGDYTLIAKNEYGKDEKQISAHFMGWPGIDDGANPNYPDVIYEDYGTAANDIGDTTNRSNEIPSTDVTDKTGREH

| Binder | T1/2 [min] |
| --- | --- |
| 9-G8 (Fab, V domains shown, Fab) VH: QVQLVQSGAEVKKPGASVKVSCKASGYTFTNYVILWVRQAPGQGLEWMGYINPYNDGTKYNEKFKGRVTMTRDTSTSTVYMELSSLRSEDTAVYYCARLLKYRRFSYYAIDYWGQGTTVTVSS VL: DIQMTQSPSSLSASVGDRVTITCRASENVYSNLAWYQQKPGKAPKLLIYAASNLQSGVPSRFSGSGSGTDFTFTISSLQPEDIATYYCQHFWYSPFWFGQGTKLEIK | 1.13 |
| 10-A7 (Fab, V domains shown, Fab) VH: QVQLVQSGAEVKKPGASVKVSCKASGYTFTNYDIIWVRQAPGQGLEWMGYINPYNGRREYNEKFKGRVTMTRDTSTSTVYMELSSLRSEDTAVYYCARLLKYRRFRYYAIDYWGQGTTVTVSS VL: DIQMTQSPSSLSASVGDRVTITCRASENVYSHLAWYQQKPGKAPKLLIYAASNLQSGVPSRFSGSGSGTDFTFTISSLQPEDIATYYCQHFWYSPFTFGQGTKLEIK | 3 |
| 11-C6 (Fab, V domains shown, Fab) VH: QVQLVQSGAEVKKPGASVKVSCKASGYTFTNYDIIWVRQAPGQGLEWMGYINPYNGRREYNEKFKGRVTMTRDTSTSTVYMELSSLRSEDTAVYYCARLLKYRRFRYYAIDYWGQGTTVTVSS VL: DIQMTQSPSSLSASVGDRVTITCRASSNVYSNLAWYQQKPGKAPKLLIYAASNLQSGVPSRFSGSGSGTDYTFTISSLQPEDIATYYCQHFWGSPFTFGQGTKLEIK | 10.8 |
| 10-E10 (Fab, V domains shown, Fab) VH: QVQLVQSGAEVKKPGASVKVSCKASGYTFTNYDIIWVRQAPGQGLEWMGYINPYNDGRKENEKFKGRVTMTRDTSTSTVYMELSSLRSEDTAVYYCARLLKYRRFRYYAIDYWGQGTTVTVSS VL: DIQMTQSPSSLSASVGDRVTITCRASENVYSNLAWYQQKPGKAPKLLIYAASNLQSGVPSRFSGSGSGTDFTFTISSLQPEDIATYYCQHFWGSPFTFGQGTKLEIK | 2.7 |
| 10-G2 (Fab, V domains shown, Fab) VH: QVQLVQSGAEVKKPGASVKVSCKASGYTFTNYDIIWVRQAPGQGLEWMGYINPYNGRREYNEKFKGRVTMTRDTSTSTVYMELSSLRSEDTAVYYCARLLKYRRFRYYAIDYWGQGTTVTVSS VL: DIQMTQSPSSLSASVGDRVTITCRASEAVYSNLAWYQQKPGKAPKLLIYAASNLQSGVPSRFSGSGSGTDFTFTISSLQPEDIATYYCQHFWGSPFTFGQGTKLEIK | 5.2 |
| 11-B11 (Fab, V domains shown, Fab) VH: QVQLVQSGAEVKKPGASVKVSCKASGYTFTNYDIIWVRQAPGQGLEWMGYINPYNGRREYNEKFKGRVTMTRDTSTSTVYMELSSLRSEDTAVYYCARLLKYRRFRYYAIDYWGQGTTVTVSS VL: DIQMTQSPSSLSASVGDRVTITCRASEPVYSNLAWYQQKPGKAPKLLIYAASNLQSGVPSRFSGSGSGTDFTFTISSLQPEDIATYYCQHFWGSPFTFGQGTKLEIK | 5.5 |
| 10-F12 (Fab, V domains shown, Fab) VH: QVQLVQSGAEVKKPGASVKVSCKASGYTFTNYDIIWVRQAPGQGLEWMGYINPYNGRREYNEKFKGRVTMTRDTSTSTVYMELSSLRSEDTAVYYCARLLKYRRFRYYAIDYWGQGTTVTVSS VL: DIQMTQSPSSLSASVGDRVTITCRASENVYRNLAWYQQKPGKAPKLLIYAASNLQSGVPSRFSGSGSGTDFTFTISSLQPEDIATYYCQHFWGSPFTFGQGTKLEIK | 5.7 |
| 10-D11 (Fab, V domains shown, Fab) VH: QVQLVQSGAEVKKPGASVKVSCKASGYTFTNYDIIWVRQAPGQGLEWMGYINPYNGRREYNEKFKGRVTMTRDTSTSTVYMELSSLRSEDTAVYYCARLLKYRRFRYYAIDYWGQGTTVTVSS VL: DIQMTQSPSSLSASVGDRVTITCRASENVYRNLAWYQQKPGKAPKLLIYAASNLQSGVPSRFSGSGSGTDFTFTISSLQPEDIATYYCQHFWYSPFTFGQGTKLEIK | 4.2 |
| 10-G3 (Fab, V domains shown, Fab) VH: QVQLVQSGAEVKKPGASVKVSCKASGYTFTNYDIIWVRQAPGQGLEWMGYINPYNERTEYNEKFKGRVTMTRDTSTSTVYMELSSLRSEDTAVYYCARLLKYRRFRYYAIDYWGQGTTVTVSS VL: DIQMTQSPSSLSASVGDRVTITCRASENVYRNLAWYQQKPGKAPKLLIYIASNLQSGVPSRFSGSGSGTDFTFTISSLQPEDIATYYCQHFVYSPFTFGQGTKLEIK | 4.8 |
| 10-F7 (Fab, V domains shown, Fab) VH: QVQLVQSGAEVKKPGASVKVSCKASGYTFTNYDIIWVRQAPGQGLEWMGYINPYNGRREYNEKFKGRVTMTRDTSTSTVYMELSSLRSEDTAVYYCARLLKYRRFRYYAIDYWGQGTTVTVSS VL: DIQMTQSPSSLSASVGDRVTITCRASENVYSHLAWYQQKPGKAPKLLIYAASNLQSGVPSRFSGSGSGTDFTFTISSLQPEDIATYYCQHFVYSPFTFGQGTKLEIK | 4.9 |
| 10-C10 (Fab, V domains shown, Fab) VH: QVQLVQSGAEVKKPGASVKVSCKASGYTFTNYDIIWVRQAPGQGLEWMGYINPYNGRREYNEKFKGRVTMTRDTSTSTVYMELSSLRSEDTAVYYCARLLKYRRFRYYAIDYWGQGTTVTVSS VL: DIQMTQSPSSLSASVGDRVTITCRASENVYRNLAWYQQKPGKAPKLLIYAASNLQSGVPSRFSGSGSGTDFTFTISSLQPEDIATYYCQHFVYSPFTFGQGTKLEIK | 4.3 |
| 10-F10 (Fab, V domains shown, Fab) VH: QVQLVQSGAEVKKPGASVKVSCKASGYTFTNYDIIWVRQAPGQGLEWMGYINPYNDGRKENEKFKGRVTMTRDTSTSTVYMELSSLRSEDTAVYYCARLLKYRRFRYYAIDYWGQGTTVTVSS VL: DIQMTQSPSSLSASVGDRVTITCRASENVYLNLAWYQQKPGKAPKLLIYAASNLQSGVPSRFSGSGSGTDFTFTISSLQPEDIATYYCQHFWGSPFTFGQGTKLEIK | 4.1 |
| 11-B9 (Fab, V domains shown, Fab) VH: QVQLVQSGAEVKKPGASVKVSCKASGYTFTNYDIIWVRQAPGQGLEWMGYINPYNGRREYNEKFKGRVTMTRDTSTSTVYMELSSLRSEDTAVYYCARLLKYRRFRYYAIDYWGQGTTVTVSS VL: DIQMTQSPSSLSASVGDRVTITCRASTNVYRNLAWYQQKPGKAPKLLIYAASNLQSGVPSRFSGSGSGTDFTFTISSLQPEDIATYYCQHFWGSPFTFGQGTKLEIK | 4.9 |
| 10-C7 (Fab, V domains shown, Fab) VH: QVQLVQSGAEVKKPGASVKVSCKASGYTFTNYDIIWVRQAPGQGLEWMGHINPYNGRREYNEKFKGRVTMTRDTSTSTVYMELSSLRSEDTAVYYCARLLKYRRFRYYAIDYWGQGTTVTVSS VL: DIQMTQSPSSLSASVGDRVTITCRASESVYSNLAWYQQKPGKAPKLLIYAASNLQSGVPSRFSGSGSGTDFTFTISSLQPEDIATYYCQHFVYSPFTFGQGTKLEIK | 4.1 |
| 10-A5 (Fab, V domains shown, Fab) VH: QVQLVQSGAEVKKPGASVKVSCKASGYTFTNYDIIWVRQAPGQGLEWMGYINPYNDGTKYNEKFKGRVTMTRDTSTSTVYMELSSLRSEDTAVYYCARLLKYRRFRYYAIDYWGQGTTVTVSS VL: DIQMTQSPSSLSASVGDRVTITCRASETVYSNLAWYQQKPGKAPKLLIYAASNLQSGVPSRFSGSGSGTDFTFTISSLQPEDIATYYCQHFWGSPFTFGQGTKLEIK | 1 |
| 10-B9 (Fab, V domains shown, Fab) VH: QVQLVQSGAEVKKPGASVKVSCKASGYTFTNYDIIWVRQAPGQGLEWMGYINPYNDGRKENEKFKGRVTMTRDTSTSTVYMELSSLRSEDTAVYYCARLLKYRRFRYYAIDYWGQGTTVTVSS VL: DIQMTQSPSSLSASVGDRVTITCRASEPVYSNLAWYQQKPGKAPKLLIYAASNLQSGVPSRFSGSGSGTDFTFTISSLQPEDIATYYCQHFWGSPFTFGQGTKLEIK | 4 |
